5 variants from publication PMC4490372, “Architecture of TFIIIC and its role in RNA polymerase III pre-initiation complex assembly” (Nature Communications, 2015) can be followed below.

To fix the notation:
B1: τ131 (123–566), TPR array, wild type [S. cerevisiae] / τ138 (546–693), eWH-τIR [S. cerevisiae] (parent complex)
chain 1: VLDPEVAQLLSQANEAFVRNDLQVAERLFNEVIKKDARNFAAYETLGDIYQLQGRLNDCCNSWFLAAHLNASDWEFWKIVAILSADLDHVRQAIYCFSRVISLNPMEWESIYRRSMLYKKTGQLARALDGFQRLYMYNPYDANILRELAILYVDYDRIEDSIELYMKVFNANVERREAILAALENALDSSDEESAAEGEDADEKEPLEQDEDRQMFPDINWKKIDAKYKCIPFDWSSLNILAELFLKLAVSEVDGIKTIKKCARWIQRRESQTFWDHVPDDSEFDNRRFKNSTFDSLLAAEKEKSYNIPIDIRVRLGLLRLNTDNLVEALNHFQCLYDETFSDVADLYFEAATALTRAEKYKEAIDFFTPLLSLEEWRTTDVFKPLARCYKEIESYETAKEFYELAIKSEPDDLDIRVSLAEVYYRLNDPETFKHMLVDVVEMR
chain 2: SARSLRSLQRQRAILKVMNTIGGVAYLREQFYESVSKYMGSTTTLDKKTVRGDVDLMVESEKLGARTEPVSGRKIIFLPTVGEDAIQRYILKEKDSKKATFTDVIHDTEIYFFDQTEKNRFHRGKKSVERIRKFQNRQKNAKIKASDD
B2: τ131 (123–566), TPR array, wild type [S. cerevisiae] / τ138 (641–693), τ131-Interaction Region (τIR) [S. cerevisiae] (parent complex)
chain 1: B1 chain 1
chain 2: SKKATFTDVIHDTEIYFFDQTEKNRFHRGKKSVERIRKFQNRQKNAKIKASDD

In one assay the parent is B1. Briefly: ITC; parent: 100 nM. Background: Isothermal titration calorimetry measures the heat released or taken up as one component is titrated into another.
Take chain 1 E350K: the dissociation constant (Kd) was determined as 415 nM.
For the variant chain 1 E376K, the equilibrium dissociation constant (Kd) worked out at 971 nM.

In a further assay the parent is B2. Briefly: ITC; parent: 80 nM.
chain 1 E376K: the equilibrium dissociation constant (Kd) stood at 833 nM.
On the same count and under the same terms, as for chain 1 E375K, the figure is 89 nM; as for chain 1 E350K, 833 nM.

As usually defined, the Kd is the equilibrium constant for the complex coming apart.
